Laboratory results taken from patent US20260258115A1.
Residue numbers refer to the chain shown, from its start.

B1: ADI-41265 (antibody, V domains shown)
VH: EVQLVQSGAEVKKPGESLTISCKDSGYSFTSYWIGWVRQVPGKGLEWMGIVYPGDSRYSPSFQGHVTMSADKSINTAYLQWSTLKASDTAMYYCAKVVTYGSAIRWFESWGQGTLVTVSS
VL: QSVLTQPPSVSAAPGQKVSISCSGSSSNIGNNFVSWYQQVPGTAPKLLIIDNNKRPSGIPDRFSGSKSGTSATLGITGLQTGDEADYYCGTWDSRLSAEVFGGGTKLTVL
B2: ADI-41275 (antibody, V domains shown)
VH: EVQLVESGGGLVKPGGSLRLSCAASGFMFSTYSMNWVRQAPGKGLEWVSFITGSSSDKYYAHSVKGRFTISRDNAKRTLYLQLNSLRAEDTAVYYCARFRGLYCDGDCSSRGNTYYNYYGMDVWGQGTTVTVSS
VL: EIVMTQSPLSLSVIPGEPASISCRSSKSLLHSNGYTYLDWYLQKPGQSPQLLIHLGSNRASGVPDRFSGSGSGTDFTLKISRVEAEDVGVFYCMQALQAPPTFGPGTKVEIK
B3: ADI-41252 (antibody, V domains shown)
VH: EVQLVQSGAEVKKPGESLKISCMGSGYNFPNYWIGWVRQMSGKGLEWMGIIYPDDSDTTYSPSFQGQVIFSADKSISTAYLQWSSLKASDTAMYFCVRLDKTTQIDFWGQGTLVTVSS
VL: EIVLTQSPSSLSASVGDRVTITCQASQDISNYLNWYQQKPGKAPKLLIYDVSNLETGVPSRFSGSGSGTDFTFTISSLQPEDIATYYCQQHDNLPLTFGQGTRLEIK
B4: ADI-41273 (antibody, V domains shown)
VH: EVQLLESGGDLVRPGGSLRLSCTASGFSFSSSEMNWVRQAPGKGLEWVASINSGGDDIYYADSVKGRFTISRDNAKNSLSLQMDSLRAEDTALYYCARSRSGYSSGWSRFFGNWGQGTLVTVSS
VL: QSALTQPRSVSGSPGQSVTISCTGTISDIGAYNYVSWYQQHPGKAPKVMIYDVSKRPSGVPDRFSGSKSGFTASLTISGLQAEDEADYYCCSYAGRWVFGGGTKLTVL
B5: ADI-41248 (antibody, V domains shown)
VH: QVQLVQSGGGVVQPGRSLRLSCAASGFTFSSYSMHWVRQAPGKGLEWMAVCWYDGSNIYYADSVKGRFTISRDNSKNTVYLQMNSLRAEDTAVYYCARDDRYCSGGTCLSAFDIWGQGTMVTVSS
VL: ETTLTQSPSSLSASVGDRVTITCRASQSISSYLNWYQQKPGRAPKLLIYTTSSLQSGVSSRFSGSGSGTDFTLTINSLQPEDFATYYCQQSYSTPNTFGQGTKVEIK
B6: ADI-41247 (antibody, V domains shown)
VH: QVQLVQSGAEVKKPGASLQVSCKASGYTFTDSYFHWVRQAPGQGLEWMGRISPHSGGTNYAQKFQGRVTMTRDTSISTAYLELSRLRSDDTAVYYCATEGPRGPFRFDPWGQGTLVTVSS
VL: NFMLTQPHSVSESPGKTVTISCTRSSGSIASNYVQWYQQRPGSSPTTVIYEDNQRPSGVPDRFSGSIDSSSNSASLTISGLMTEDEADYYCQSYDSSNWVFGGGTKLTVL
B7: ADI-41263 (antibody, V domains shown)
VH: QVQLVQSGAEVKKPGASVKVYCKASGYTFTSHYIHWVRQAPGQGLEWMGRMNPSGGSPMYAQKFQERVTMTRDTSTSTAYMELRSLRSEDTAVYYCAMAKFYSFDYWGQGTLVTVSS
VL: B6 VL with N1Q, F2S, M3V, N32Y, Y33F, Q35H, S44A, T47I, M82K
B8: ADI-41284 (antibody, V domains shown)
VH: QVQLVQSGGGLVKPGGSLRLSCAASGFTFSNAWMSWVRQAPGKGLEWVGRIKSEVDGGTADYAANVKGRLTISRDDSKNMMYLQMNSLKTEDTAVYYCTTDPGVGWIFGEVKLFRTDPEYWGQGTLVTVSS
VL: QSVLTQPPSVSAAPGQKVTISCSGSSSNIGNHYVSWYQQLPGTSPKLLIYDNNKRPSGIPDRFSGSKSGTSATLGITGLQPGDEADYYCGTWDSSLSAVRVFGGGTKVTVL
B9: ADI-41243 (antibody, V domains shown)
VH: QVQLVQSRAEVKKPGESLKISCKGSLHSFSNNWIGWVRQMPGKGLEWMGIIFPDDSDTRYSPSFQGQVTISADKSISTAYLQWSSLKASDTAIYYCGTVVTLIQGVADWGQGTLVTVSS
VL: QPVLTQPHSVSESPGKTVTISCTRSSGSIDSSYVQWYQQRPGSSPTTVIYEDNLRPSGVPDRFSGSIDSSSNSASLTISGLKTEDEAEYYCQSYDSSNPVVFGGGTKLTVL
B10: ADI-41282 (antibody, V domains shown)
VH: QVQLVQSGGGVVQPGRSLRLSCAASGFMFTIYSMHWVRQAPGKGLEWVAVISNDGVNKYYSDSVKGRFTISRDNSKNTLYLQMNNLRAEDTAVYYCASDIVVLVTATDYWGQGTLVTVSS
VL: ETTLTQSPVTLSLSPGERATLSCRTSQSFSSPLLAWYQQKPGQAPRLLIYGASNRATGIPDRFSGSGSGTDFTLTISRLEPVDFAVYYCQQYGSSPYTFGQGTKLEIK
B11: ADI-41283 (antibody, V domains shown)
VH: QVTLKESGPTLVKPTQTLTLTCTFSGFSLSTFGVAVGWIRQPPGKALEWLALIYWDDDKRYSPSLKSRLTITKDISKNQVVLTMTNMDPVDTATYYCAHRLRSLTARGVFDIWGQGTTVTVSS
VL: DIRLTQSPSSLSASVGDRVTITCRASQSINNFLNWYQQRPGKAPTLLIYSASSLQSGVPSRFSGSGSGTDFTLTISSLQPEDFATYFCQQTDSFPWTFGQGTKVEIK
B12: ADI-41270 (antibody, V domains shown)
VH: EVQLVESGGGVVQPGQSLRLSCAASGFTFSSFAMHWVRQAPGKGLEWVAVISYDGSNKYYADSVKGRFTISRDNSKNTLSLQVNSLRAEDTAVYYCARVSAEGSMGRFSDFNYWGLGTLVTVSS
VL: QSALTQPASVSGSPGQSITISCTGTSSDVGSYNLVSWYQQHPGKAPKLMIYEVRKRPSGVSNRFSGSKSGNTASLTISGLQAEDEADYYCCSYAGSDTYVFGTGTKLTVL
B13: ADI-41281 (antibody, V domains shown)
VH: QVQLVQSGAEVKKPGASVKVSCKASGYSFTNHGIHWVRQAPGQRLEWMGWINVANGFTAYSQNLQGRVTFTRDTSASTAYLELTSLRSEDTAVYHCARDESYCSAGYCYLYFDYWGQGTTVTVSS
VL: DIQVTQSPSSLSASVGDRVTITCRASQNIITYVNWYQQKPGKAPELLIFGASSVQSGVPSRFSGSGSGTDFTLTISSLRPDDFATYYCQQSYSNPRTFGGGTKVEIK
B14: ADI-41277 (antibody, V domains shown)
VH: QVQLQESGPGLVKPSGTLSLTCAVSGGSITGRNWWSWVRQPPGKELERIGEIYHGGSTEYNPSLKGRVTISVDKSKNQFSLRLNSVTAADTAVYYCARVAHYDSNGYYIGYFDLWGRGTLVTVSS
VL: EIVLTQSPPSLSASVGDRVTITCRASQSISIYLNWYQQKPGKAPKLLIFAASSLQSGVPLRFSGSGSGTDFTLTISSLQPEDFATYYCHQSYSAPWTFGQGTKVDIK
B15: ADI-41285 (antibody, V domains shown)
VH: QVQLVQSGAEVKKPGSSVKVSCKASGGTFSYYAISWVRQAPGQGLEWMGGIIPILGTVKNAQKFQGRVTITADKITSIAYMELSSLRHEDTAVYYCARDYYDSSGYYYNGYGMDVWGQGTTVTVSS
VL: QSVLIQPPSASGTPGQRVTISCSGSSSNIGSNYVYWYQQLPGTAPKLLIYRNDQRPSGVPDRFSGSKSGTSASLAISGLRSGDEADYYCAAWDDSLGGPIWVFGGGTKLTVL
B16: ADI-41280 (antibody, V domains shown)
VH: QVQLVESGPGLVKPSETLALTCTVSGGSLSTYYWSWIRQPPGKGLEWIGYIYYSGTTYYNPSLKSRVTISEDRSKNQFSLKLTSVTAADTAVYYCARHGPKTEFWSAQYYLELWGRGTLVTVSS
VL: EIVLTQSPGTLSLSPGERATLSCRASQSVSSDYLAWYQQKPGQAPSLLIYGVSTRATGIPDRISGSGSGTDFTLTISRLEPEDFAVYYCHQYGTSPWTFGQGTKVEIK
B17: ADI-41250 (antibody, V domains shown)
VH: QVQLQQWGAGLLKPSETLSLTCAVSGESLTGYFWSWIRQPPGKGLEWIGEVSHSGSTNYNPSLKSRVTMSVDTSKTQFSLKLNSVTAADTAVYYCARGYDYWSGTARYFDYWGQGILVTVSS
VL: QPVLTQPASVSGSPGQSITISCTGTSSDVGGYNYVSWYQQHPGKAPKLMIYDVSNRPSGVSSRFSGSKSGNTASLTISGLQAEDEGDYYCSSYRSSTTSRVFGGGTKVTVL
B18: ADI-41278 (antibody, V domains shown)
VH: EVQLVESGPALVKPTQTLTLTCTFSGFSLSTKRMGVSWIRQPPGKALEWLARIDWDDDKFYSTSLKTRLTISKDTSKNQVVLTLANMDPVDTATYFCARTTVYASGGYYLYYLDYWGQGTLVTVSS
VL: DIVMTQTPSSLSASVGDRVTLTCRASQRIASYVNWYHQKPGKAPNLLIYAASNLQSGVPSRFSGSGSGTDFTLTISSLQPEDFATYYCQQSYSTPLTFGQGTKLEIK
B19: ADI-41267 (antibody, V domains shown)
VH: QVQLVQSGPGLVKPSGTLSLTCAVSGGSISTTHWWSWVRQPPGKGLEWIGEIYHSGSTNYNPSLKSRVTISVDKSRSQFSLKLTSVTAADTAVYYCARGDPLCSGGICYSGYFDYWGQGTLVTVSS
VL: SYVLTQPPSVSVSPGQTATITCSGDKLGDQYACWYQQKSGQSPVLVIYRDNKRPSGIPERFSGSNSGNTATLTISETQAMDEADYYCQAWGSSSVVFGGGTKVTVL
B20: ADI-41279 (antibody, V domains shown)
VH: QVQLVQSGAEVKKAGETLKISCRGPAHTFTSFWIGWVRQTPGKGLEWMGNIYPGDTDTTYSPSFRGQVTISADKSISTAYLQWNSLKASDTAIYYCATRVRHGYSSSGSFESWGQGTMVTVSS
VL: QSVVTQPPSVSGAPGQRITISCTGSNSNTGAGYDVHWYQQLPGAAPKLLIFANNNRPSGVPDRFSGSKSGTSASLAITGLQAEDEADYYCQSYDNSLSAYVFGTGTKLTVL

Target: RSV prefusion F (preF, DS-Cav1) (Respiratory syncytial virus)
Test: BLI, IgG on sensor, 100 nM antigen

Binder | Kd [nM]
B1 | 15
B2 | 5.74
B3 | 1.37
B4 | 3.06
B5 | 3.35
B6 | 2.76
B7 | 2.9
B8 | 3.06
B9 | 3.55
B10 | 3.25
B11 | 27.4
B12 | 4.92
B13 | 6.7
B14 | 3.6
B15 | 0.511
B16 | 3.62
B17 | 0.731
B18 | 1.28
B19 | 10.7
B20 | 50.4

Target: RSV postfusion F (postF, F deltaFP) (Respiratory syncytial virus)
Test: BLI, IgG on sensor, 100 nM antigen

Binder | Kd [nM]
B1 | 3.08
B2 | 1.33
B3 | 1
B4 | 1.17
B5 | 0.392
B6 | 1.02
B7 | 0.345
B8 | 0.547
B9 | 0.418
B10 | 1.25
B11 | 7.95
B12 | 0.617
B13 | 1.58
B14 | 0.78
B15 | 0.412
B16 | 0.483
B17 | 0.504
B18 | 0.482
B19 | 10.9
B20 | 47.8
